Experimental data from PMC1934351.
pKd: −log10 of the molar value.

Assays:
[1] = tested on: L1 repressor CI (native, untagged) (Mycobacteriophage L1); assay: equilibrium binding; details: data not shown; EMSA in Buffer A (binding buffer composition not given in material) with 10 ug/ml BSA, ~0.1 nM 32P-labeled operator, 20 ul, 25 C for 20 min (also 32, 37, 42 C …)
[2] = target: C-terminal domain (CTD) of L1 repressor CI (mycobacteriophage L1); assay: cross-linking; 0.1% glutaraldehyde for 2 min after 20 min at 25°C in Buffer A, ~0.5 uM protein, SDS-10% PAGE, silver staining; monomer to dimer
[3] = target: C-terminal domain (CTD) of L1 repressor CI (mycobacteriophage L1); assay: SEC; analytical HPLC gel filtration (Protein Pak, Waters) in Buffer A minus PMSF; ~20 uM protein loaded; column calibrated with BSA, ovalbumin, carbonic anhydrase, lysozyme; monomer to dimer
[4] = target: N-terminal histidine-tagged repressor (CI) of temperate mycobacteriophage L1 (mycobacteriophage L1); assay: cross-linking; 0.1% glutaraldehyde for 2 min after 20 min at 25°C in Buffer A, ~0.5 uM protein, SDS-10% PAGE, silver staining; monomer to dimer
[5] = target: N-terminal histidine-tagged repressor (CI) of temperate mycobacteriophage L1 (mycobacteriophage L1); assay: SEC; analytical HPLC gel filtration (Protein Pak, Waters) in Buffer A minus PMSF; ~20 uM protein loaded; column calibrated with BSA, ovalbumin, carbonic anhydrase, lysozyme; monomer to dimer
[6] = tested on: L1 repressor CI (native, untagged) (Mycobacteriophage L1); assay: EMSA; details: EMSA in Buffer A (binding buffer composition not given in material) with 10 ug/ml BSA, ~0.1 nM 32P-labeled operator, 20 ul, 25 C for 20 min (also 32, 37, 42 C …); for pKd: 25 C, apparent Kd at 50% saturation

Chain of N-terminal histidine-tagged repressor (CI) of temperate mycobacteriophage L1 (Q05286 whole entry): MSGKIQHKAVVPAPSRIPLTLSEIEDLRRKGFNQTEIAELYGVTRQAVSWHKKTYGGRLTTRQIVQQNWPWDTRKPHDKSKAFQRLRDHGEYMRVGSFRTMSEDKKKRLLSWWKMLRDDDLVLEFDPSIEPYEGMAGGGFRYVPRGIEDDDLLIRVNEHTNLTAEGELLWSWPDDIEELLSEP

With 21 bp DNA carrying O64 operator the binding signal (fold higher affinity than N4) [1] was 2.57.
21 bp DNA carrying OL operator was tested, and the binding signal (affinity relative to N3 (1/2.57)) [1] was 0.389.
For “C-terminal domain (CTD) of L1 repressor CI (domain or fragment)”, the stoichiometry N [2] was 2 and the stoichiometry N [3] was 2.
For “N-terminal histidine-tagged repressor (CI) of temperate mycobacteriophage L1”, the stoichiometry N [4] was 2 and the stoichiometry N [5] was 2.
Substance O64 (~120 bp) has a pKd [6] of 6.85 and a binding signal (fold decrease of affinity vs 25 C) [6] of 6.
Substance OL (97 bp) has a pKd [6] of 6.43.
